The chains are these.
T1: EsCas13d, nuclease-dead (Eubacterium siraeum, UniProt B0MS50, R295A;H300A;R849A;H854A)
T1 sequence: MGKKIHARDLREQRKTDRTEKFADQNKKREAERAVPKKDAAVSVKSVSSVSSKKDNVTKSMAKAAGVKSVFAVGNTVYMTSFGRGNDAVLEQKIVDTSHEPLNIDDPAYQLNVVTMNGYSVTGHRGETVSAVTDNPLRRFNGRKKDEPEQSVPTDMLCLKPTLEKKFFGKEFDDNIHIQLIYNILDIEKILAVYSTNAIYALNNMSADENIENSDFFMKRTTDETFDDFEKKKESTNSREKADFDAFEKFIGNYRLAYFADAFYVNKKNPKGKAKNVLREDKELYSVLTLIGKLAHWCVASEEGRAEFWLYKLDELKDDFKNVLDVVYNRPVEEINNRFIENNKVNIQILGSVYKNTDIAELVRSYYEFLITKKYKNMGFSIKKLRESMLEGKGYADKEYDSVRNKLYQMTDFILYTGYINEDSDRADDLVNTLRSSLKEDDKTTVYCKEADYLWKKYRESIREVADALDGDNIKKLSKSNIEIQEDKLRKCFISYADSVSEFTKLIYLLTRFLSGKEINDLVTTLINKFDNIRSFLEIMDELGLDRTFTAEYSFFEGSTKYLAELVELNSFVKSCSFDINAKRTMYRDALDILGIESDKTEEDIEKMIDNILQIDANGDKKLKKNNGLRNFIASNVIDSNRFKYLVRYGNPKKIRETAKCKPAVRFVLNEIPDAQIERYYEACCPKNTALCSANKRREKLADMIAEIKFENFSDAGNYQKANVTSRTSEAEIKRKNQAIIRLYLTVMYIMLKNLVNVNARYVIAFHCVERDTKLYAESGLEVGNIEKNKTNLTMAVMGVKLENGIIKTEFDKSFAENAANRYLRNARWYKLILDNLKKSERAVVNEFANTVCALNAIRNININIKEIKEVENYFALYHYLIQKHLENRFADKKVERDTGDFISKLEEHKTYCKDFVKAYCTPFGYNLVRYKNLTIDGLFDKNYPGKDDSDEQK

B1: target 1 A9G,A20U (mixed)
RNA 1: CACCCGUGCAAAAAUGCAGGGGUCUAAAACUGAGCGGAUAACCUCUCUAUGG
RNA 2: GGGAAUGGAUCCACAUCUACGAAUUCGUACCUUAGAGAGGUUGUCCGCUCACCGAGAUCGGAAGAGCACACGU
B2: target 1 G5U,G12A (mixed)
RNA 1: CACCCGUGCAAAAAUGCAGGGGUCUAAAACUGAGCGGAUAACCUCUCUAUGG
RNA 2: GGGAAUGGAUCCACAUCUACGAAUUCGUACCAUAGAGAGAUUAUCCUCUCACCGAGAUCGGAAGAGCACACGU
B3: target 1 insC 3' of 9,insC 3' of 3 (mixed)
RNA 1: CACCCGUGCAAAAAUGCAGGGGUCUAAAACUGAGCGGAUAACCUCUCUAUGG
RNA 2: GGGAAUGGAUCCACAUCUACGAAUUCGUACCAUAGAGAGGUUACUCCGCUCCACCGAGAUCGGAAGAGCACACGU
B4: target 1 G15C,C21A (mixed)
RNA 1: CACCCGUGCAAAAAUGCAGGGGUCUAAAACUGAGCGGAUAACCUCUCUAUGG
RNA 2: GGGAAUGGAUCCACAUCUACGAAUUCGUACAAUAGACAGGUUAUCCGCUCACCGAGAUCGGAAGAGCACACGU
B5: target 1 del8,del13 (mixed)
RNA 1: CACCCGUGCAAAAAUGCAGGGGUCUAAAACUGAGCGGAUAACCUCUCUAUGG
RNA 2: GGGAAUGGAUCCACAUCUACGAAUUCGUACCAUAGAGAGUUACCGCUCACCGAGAUCGGAAGAGCACACGU
B6: target 1 del5,del9 (mixed)
RNA 1: CACCCGUGCAAAAAUGCAGGGGUCUAAAACUGAGCGGAUAACCUCUCUAUGG
RNA 2: GGGAAUGGAUCCACAUCUACGAAUUCGUACCAUAGAGAGGUUUCCCUCACCGAGAUCGGAAGAGCACACGU
B7: target 1 C2U,G5U (mixed)
RNA 1: CACCCGUGCAAAAAUGCAGGGGUCUAAAACUGAGCGGAUAACCUCUCUAUGG
RNA 2: GGGAAUGGAUCCACAUCUACGAAUUCGUACCAUAGAGAGGUUAUCCUCUUACCGAGAUCGGAAGAGCACACGU
B8: target 1 A1U,A16G (mixed)
RNA 1: CACCCGUGCAAAAAUGCAGGGGUCUAAAACUGAGCGGAUAACCUCUCUAUGG
RNA 2: GGGAAUGGAUCCACAUCUACGAAUUCGUACCAUAGGGAGGUUAUCCGCUCUCCGAGAUCGGAAGAGCACACGU
B9: target 1 G5U,G17C (mixed)
RNA 1: CACCCGUGCAAAAAUGCAGGGGUCUAAAACUGAGCGGAUAACCUCUCUAUGG
RNA 2: GGGAAUGGAUCCACAUCUACGAAUUCGUACCAUACAGAGGUUAUCCUCUCACCGAGAUCGGAAGAGCACACGU
B10: target 1 insC 3' of 20,insA 3' of 2 (mixed)
RNA 1: CACCCGUGCAAAAAUGCAGGGGUCUAAAACUGAGCGGAUAACCUCUCUAUGG
RNA 2: GGGAAUGGAUCCACAUCUACGAAUUCGUACCACUAGAGAGGUUAUCCGCUCAACCGAGAUCGGAAGAGCACACGU
B11: target 1 insA 3' of 21,insC 3' of 3 (mixed)
RNA 1: CACCCGUGCAAAAAUGCAGGGGUCUAAAACUGAGCGGAUAACCUCUCUAUGG
RNA 2: GGGAAUGGAUCCACAUCUACGAAUUCGUACCAAUAGAGAGGUUAUCCGCUCCACCGAGAUCGGAAGAGCACACGU
B12: target 1 G15A,G17C (mixed)
RNA 1: CACCCGUGCAAAAAUGCAGGGGUCUAAAACUGAGCGGAUAACCUCUCUAUGG
RNA 2: GGGAAUGGAUCCACAUCUACGAAUUCGUACCAUACAAAGGUUAUCCGCUCACCGAGAUCGGAAGAGCACACGU
B13: target 1 insU 3' of 2,insU 3' of 2 (mixed)
RNA 1: CACCCGUGCAAAAAUGCAGGGGUCUAAAACUGAGCGGAUAACCUCUCUAUGG
RNA 2: GGGAAUGGAUCCACAUCUACGAAUUCGUACCAUAGAGAGGUUAUCCGCUCUUACCGAGAUCGGAAGAGCACACGU
B14: target 1 complement block 2-4 (mixed)
RNA 1: CACCCGUGCAAAAAUGCAGGGGUCUAAAACUGAGCGGAUAACCUCUCUAUGG
RNA 2: GGGAAUGGAUCCACAUCUACGAAUUCGUACCAUAGAGAGGUUAUCCGGAGACCGAGAUCGGAAGAGCACACGU
B15: target 1 C2G,U11G (mixed)
RNA 1: CACCCGUGCAAAAAUGCAGGGGUCUAAAACUGAGCGGAUAACCUCUCUAUGG
RNA 2: GGGAAUGGAUCCACAUCUACGAAUUCGUACCAUAGAGAGGGUAUCCGCUGACCGAGAUCGGAAGAGCACACGU
B16: target 1 insG 3' of 10,insU 3' of 1 (mixed)
RNA 1: CACCCGUGCAAAAAUGCAGGGGUCUAAAACUGAGCGGAUAACCUCUCUAUGG
RNA 2: GGGAAUGGAUCCACAUCUACGAAUUCGUACCAUAGAGAGGUUGAUCCGCUCAUCCGAGAUCGGAAGAGCACACGU
B17: target 1 A1G,A16G (mixed)
RNA 1: CACCCGUGCAAAAAUGCAGGGGUCUAAAACUGAGCGGAUAACCUCUCUAUGG
RNA 2: GGGAAUGGAUCCACAUCUACGAAUUCGUACCAUAGGGAGGUUAUCCGCUCGCCGAGAUCGGAAGAGCACACGU
B18: target 1 C6G,G12A (mixed)
RNA 1: CACCCGUGCAAAAAUGCAGGGGUCUAAAACUGAGCGGAUAACCUCUCUAUGG
RNA 2: GGGAAUGGAUCCACAUCUACGAAUUCGUACCAUAGAGAGAUUAUCGGCUCACCGAGAUCGGAAGAGCACACGU
B19: target 1 insG 3' of 2,insU 3' of 2 (mixed)
RNA 1: CACCCGUGCAAAAAUGCAGGGGUCUAAAACUGAGCGGAUAACCUCUCUAUGG
RNA 2: GGGAAUGGAUCCACAUCUACGAAUUCGUACCAUAGAGAGGUUAUCCGCUCGUACCGAGAUCGGAAGAGCACACGU
B20: target 1 insG 3' of 18,insU 3' of 7 (mixed)
RNA 1: CACCCGUGCAAAAAUGCAGGGGUCUAAAACUGAGCGGAUAACCUCUCUAUGG
RNA 2: GGGAAUGGAUCCACAUCUACGAAUUCGUACCAUAGGAGAGGUUAUCUCGCUCACCGAGAUCGGAAGAGCACACGU
B21: target 1 insA 3' of 10,insA 3' of 4 (mixed)
RNA 1: CACCCGUGCAAAAAUGCAGGGGUCUAAAACUGAGCGGAUAACCUCUCUAUGG
RNA 2: GGGAAUGGAUCCACAUCUACGAAUUCGUACCAUAGAGAGGUUAAUCCGCAUCACCGAGAUCGGAAGAGCACACGU
B22: target 1 insC 3' of 22,insA 3' of 3 (mixed)
RNA 1: CACCCGUGCAAAAAUGCAGGGGUCUAAAACUGAGCGGAUAACCUCUCUAUGG
RNA 2: GGGAAUGGAUCCACAUCUACGAAUUCGUACCCAUAGAGAGGUUAUCCGCUACACCGAGAUCGGAAGAGCACACGU
B23: target 1 insU 3' of 6,insA 3' of 5 (mixed)
RNA 1: CACCCGUGCAAAAAUGCAGGGGUCUAAAACUGAGCGGAUAACCUCUCUAUGG
RNA 2: GGGAAUGGAUCCACAUCUACGAAUUCGUACCAUAGAGAGGUUAUCCUGACUCACCGAGAUCGGAAGAGCACACGU
B24: target 1 insG 3' of 16,insC 3' of 13 (mixed)
RNA 1: CACCCGUGCAAAAAUGCAGGGGUCUAAAACUGAGCGGAUAACCUCUCUAUGG
RNA 2: GGGAAUGGAUCCACAUCUACGAAUUCGUACCAUAGAGGAGCGUUAUCCGCUCACCGAGAUCGGAAGAGCACACGU
B25: target 1 insC 3' of 17,insA 3' of 13 (mixed)
RNA 1: CACCCGUGCAAAAAUGCAGGGGUCUAAAACUGAGCGGAUAACCUCUCUAUGG
RNA 2: GGGAAUGGAUCCACAUCUACGAAUUCGUACCAUAGCAGAGAGUUAUCCGCUCACCGAGAUCGGAAGAGCACACGU
B26: target 1 C2U,G17C (mixed)
RNA 1: CACCCGUGCAAAAAUGCAGGGGUCUAAAACUGAGCGGAUAACCUCUCUAUGG
RNA 2: GGGAAUGGAUCCACAUCUACGAAUUCGUACCAUACAGAGGUUAUCCGCUUACCGAGAUCGGAAGAGCACACGU
B27: target 1 insG 3' of 21,insA 3' of 5 (mixed)
RNA 1: CACCCGUGCAAAAAUGCAGGGGUCUAAAACUGAGCGGAUAACCUCUCUAUGG
RNA 2: GGGAAUGGAUCCACAUCUACGAAUUCGUACCGAUAGAGAGGUUAUCCGACUCACCGAGAUCGGAAGAGCACACGU

The target of this series is T1, EsCas13d, nuclease-dead. In words: crRNA (strand 1, pre-loaded); Mg2+; 40 mM Tris-HCl pH 7.5, 150 mM NaCl, 6 mM MgCl2, 1 mM DTT, 0.1% Tween-20, 0.2 mg/ml BSA; 25 C; 10 min per concentration, then washed. The settings on record: tags: His6-TwinStrep-SUMO cleaved; N-terminal SNAP kept (SNAP-Surface 488); label: 3' end held by stalled T7 RNA polymerase.
In the case of B1, the Kd (usually the free concentration of one partner at which half of the binding sites on the other are occupied at equilibrium, for simple one-to-one binding) was found to be 48 ± 8 nM. In turn, B2 had a Kd of 42 ± 5 nM. As for B3, the figure is 11 ± 1 nM; as for B4, roughly 50 nM; as for B5, 16.1 ± 0.8 nM.

The molecule B6 yielded a dissociation constant (Kd) of 15.9 ± 0.6 nM.

B7: binding was characterised by a dissociation constant (Kd) of 23.2 ± 1 nM. As for B8, the figure is 33 ± 7 nM; as for B9, 80 ± 40 nM. Under B10 stands 10 ± 0.6 nM. Consider B11, for which the affinity, expressed as Kd, was 13.2 ± 0.7 nM.

B12 had a Kd of 62 ± 16 nM. B13 gave a Kd of 9.6 ± 0.7 nM. As for B14, the figure is 11 ± 0.5 nM; as for B15, 11 ± 0.6 nM; as for B16, 33 ± 5 nM.

Turning to B17, the Kd is 32.2 ± 3 nM. Under B18 stands 10.8 ± 0.7 nM; under B19, 8.9 ± 0.9 nM. Under B20 stands 67 ± 8 nM; under B21, 6.5 ± 0.4 nM. As for B22, the Kd turned out to be 11.8 ± 0.5 nM.

As to B23, the Kd worked out at 24 ± 2 nM. Under B24 stands 34 ± 4 nM; under B25, 22.3 ± 2.4 nM; under B26, 42 ± 5 nM.

As for B27, the Kd was 37 ± 9 nM.

For the origin of these results see publication PMC10786891, “Massively parallel profiling of RNA-targeting CRISPR-Cas13d”.
